# Data published in patent publication US20050191293A1 (Bristol-Myers Squibb, published 2005).
# Positions count from the first letter of the chain named.
# T1: rhesus monkey IP-10 (rhesus monkey, UniProt Q8MIZ1 22-98)
# T1 sequence: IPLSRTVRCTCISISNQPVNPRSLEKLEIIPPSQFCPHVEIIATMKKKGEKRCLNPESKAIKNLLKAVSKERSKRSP
# T2: human ITAC (interferon-inducible T cell alpha chemoattractant) (human, UniProt O14625 22-94)
# T2 sequence: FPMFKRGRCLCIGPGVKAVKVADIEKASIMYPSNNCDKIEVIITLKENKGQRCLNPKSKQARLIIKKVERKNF
# T3: human MIG (monokine induced by gamma interferon) (human, UniProt Q07325 23-125)
# T3 construct: Bought (PeproTech 300-26; R&D Systems for the migration assay)
# T3 sequence: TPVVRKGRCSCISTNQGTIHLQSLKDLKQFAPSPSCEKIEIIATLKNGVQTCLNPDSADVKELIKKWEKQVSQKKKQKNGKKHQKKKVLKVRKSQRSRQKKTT
# T4: mouse IP-10 (mouse, UniProt P17515 22-98)
# T4 construct: Bought (PeproTech 250-16)
# T4 sequence: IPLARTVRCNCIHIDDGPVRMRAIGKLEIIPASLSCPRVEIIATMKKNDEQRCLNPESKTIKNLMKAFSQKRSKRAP
# B1: 10A12 human monoclonal antibody (antibody, V domains shown)
# VH: QVQLVESGGGVVQPGRSLRLSCAASGFTFSNCGMHWVRQAPGKGLEWVALIGFDGINEYYADSVKGRFTISRDNSKNTLYLQMNSLRAEDTAVYYCARDWPEGYYNGMDVWGQGTTVTVSS
# VL: not shown
# notes: Human IgG with kappa light chain from a hybridoma of transgenic mice
# B2: 10A12S (10A12 with cysteine 32 of VH CDR1 mutated to serine) (antibody, V domains shown)
# VH: B1 VH with C32S
# VL: not shown
# B3: 7C10 human monoclonal antibody (antibody, V domains shown)
# VH: QVQLVESGGGVVQPGRSLRLSCAASGFTFSNSGMHWVRQAPGKGLEWVAVIDYDGIIQYYADSVKGRFTISRDNSKNTLYLQINSLRAEDTAVYYCATERGTHYYGSGSFDYWGQGTLVTVSS
# VL: DIQMTQSPSSLSASVGDRVTITCRASQGISSWLAWYQQKPEKAPKSLIYAASSLQSGVPSRFSGSGSGTDFTLTISSLQPEDFATYYCQQYNSYPPTFGGGTKVEIK
# notes: as for B1
# B4: 8F6 human monoclonal antibody (antibody, V domains shown)
# VH: QVQLVDSGGGVVQPGRSLRLSCAASGFTFNTYGMHWVRQAPGKGLEWVAVISYDGIIKHYADSVKGRFTITRDNSKNMVHLQMNSLRAEDTAVYYCARDSSSWYVYFDYWGQGTLVTVSS
# VL: EIVLTQSPATLSLSPGERATLSCRASQSVSSYVAWYQQKPGQAPRLLIYDASNRATGIPARFSGSGSGTDFTLTISSLEPEDFAIYYCQQRSNSPPWTFGQGTKVEIK
# notes: as for B1
# B5: 1E1 human monoclonal antibody (antibody, V domains shown)
# VH: QEQLVESGGNVVQPGRSLRLSCAASGFTFSTYGMHWVRQAPGKGLEWVAVIWYDGSDKYYADSVKDRFTVSKDNSKNTLYLQMNSLRAEDTAVYYCARNIAVADVAFDLWGQGTMVTVSS
# VL: not shown
# notes: as for B1
# Target: T5, human IP-10 (interferon gamma inducible protein 10) (human, UniProt P02778 22-98)
# Assay: cell-based or functional assay
# T5 sequence (P02778 other isoform, or with tags, fused parts or gaps limits assumed): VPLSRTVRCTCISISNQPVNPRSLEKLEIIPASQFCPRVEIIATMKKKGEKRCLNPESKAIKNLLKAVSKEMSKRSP
Binder,IC50 (nM) for 300.19 Cells: inhibition of IP-10-induced calcium flux in 300.19 cells transfected to express CXCR3,IC50 (nM) for HPBL: inhibition of IP-10-induced calcium flux in anti-CD3 activated human PBLs that express CXCR3
B1,0.18 nM,1.25 nM
B2,0.08 nM,2.31 nM
B3,0.77 nM,8.15 nM
B4,0.3 nM,6.27 nM
B5,–,3.64 nM

# Target: T5, human IP-10 (interferon gamma inducible …)
# Assay: cell-based or functional assay
# Remark: another data set of the same source
Binder,"THP-1 IP-10 IC50: inhibition of migration of CXCR3-expressing 300.19 cells induced by native IP-10 in THP-1 supernatant, MIG blocked by anti-MIG",rhIP-10 IC50: inhibition of migration of CXCR3-expressing 300.19 cells induced by 100 ng/ml recombinant human IP-10
B2,0.211 µg/mL,0.115 µg/mL
B4,0.173 µg/mL,0.355 µg/mL

# Target: T1, rhesus monkey IP-10
# Assay: cell-based or functional assay
row,Binder,rrmIP-10 IC50: inhibition of migration of CXCR3-expressing 300.19 cells induced by 100 ng/ml recombinant rhesus macaque IP-10
1,B2,15.1 µg/mL
2,B4,0.1 µg/mL

# Target: T5, human IP-10 (interferon gamma inducible …)
# Assay: cell-based or functional assay
# Remark: another data set of the same source
Binder,"Expt. 1 IC50: inhibition of MS-CSF induced migration of CXCR3-expressing 300.19 cells, MIG neutralized by anti-MIG","Expt. 2 IC50: inhibition of MS-CSF induced migration of CXCR3-expressing 300.19 cells, MIG neutralized by anti-MIG"
B2,0.562 µg/mL,0.577 µg/mL

# Target: T2, human ITAC (interferon-inducible T cell …)
# Assay: SPR (Biacore), antigen on CM5 chip, 25 C
# Description: (§1) The flow was then stopped and dissociation was monitored for 5 minutes. The association and dissociation curves were fit to a Langmuir binding model using BIAevaluation software (Biacore AB).
row,Binder,binding result
1,B1,no binding (tested: 133 nM)
2,B2,no binding (tested: 133 nM)
3,B3,no binding (tested: 133 nM)
4,B4,no binding (tested: 133 nM)

# Target: T5, human IP-10 (interferon gamma inducible …)
# Assay: ELISA, plate coated with 1 ug/ml antigen
# Description: (§2) The plates were washed with PBS/Tween and then incubated with a goat-anti-human IgG Fc polyclonal antibody conjugated with horseradish peroxidase (HRP) for 1 hour at room temperature. After washing, the plates were developed with ABTS substrate (Sigma, A-1888, 0.22 mg/ml) and analyzed by spectrophotometer at OD 415-495.
row,Binder,EC50
1,B1,0.04 µg/mL
2,B2,0.0049 µg/mL
3,B4,0.09 µg/mL

# Target: T1, rhesus monkey IP-10
# Assay: ELISA, plate coated with 1 ug/ml antigen
# Description: as §2
row,Binder,EC50
1,B1,0.08 µg/mL
2,B2,0.0156 µg/mL
3,B4,0.031 µg/mL

# Target: T3, human MIG (monokine induced by gamma …)
# Assay: ELISA, plate coated with 1 ug/ml antigen
# Description: as §2
Binder,EC50,binding result
B1,0.18 µg/mL,–
B2,0.38 µg/mL,–
B4,–,no binding

# Target: T4, mouse IP-10
# Assay: ELISA, plate coated with 1 ug/ml antigen
# Description: as §2
row,Binder,binding result
1,B1,no binding
2,B2,no binding
3,B4,no binding

# Target: T5, human IP-10 (interferon gamma inducible …)
# Assay: SPR (Biacore), human IP-10 on CM5 chip, 25 C
# Description: (§3) Binding was measured by flowing the antibody in HBS EP buffer (provided by Biacore AB) at concentrations from 33-267 nM at a flow rate of 40 μl/min. The antigen-antibody association kinetics was followed for 5 minutes and the dissociation kinetics was followed for 8 minutes. The association and dissociation curves were fit to a 1:1 Langmuir binding model using BIAevaluation software (Biacore AB). Data corresponding to the initial few dozen seconds for association and dissociation phases alone were considered for curve fitting to minimize the effect of avidity. The experiments were performed at both 25° C. and 37° C.
Binder,Kd,koff,kon
B1,0.53 nM,2.02e-05 s⁻¹,38300 M⁻¹ s⁻¹
B2,0.88 nM,3.24e-05 s⁻¹,36800 M⁻¹ s⁻¹
B3,0.02 nM,4e-07 s⁻¹,17000 M⁻¹ s⁻¹
B4,0.81 nM,0.00019 s⁻¹,233000 M⁻¹ s⁻¹

# Target: T5, human IP-10 (interferon gamma inducible …)
# Assay: SPR (Biacore), human IP-10 on CM5 chip, 37 C
# Description: as §3
Binder,Kd,koff,kon
B1,0.34 nM,3.81e-05 s⁻¹,111000 M⁻¹ s⁻¹
B2,0.49 nM,4.43e-05 s⁻¹,91000 M⁻¹ s⁻¹
B3,0.016 nM,8e-07 s⁻¹,52700 M⁻¹ s⁻¹
B4,0.78 nM,0.00027 s⁻¹,347000 M⁻¹ s⁻¹

# Target: T5, human IP-10 (interferon gamma inducible …)
# Assay: SPR (Biacore), extension of dissociation curve, 25 C
# Description: as §3
# (§4) The values were determined by extension of the dissociation curves to get to the time required for the 50% reduction of the Y-axis of the dissociation sensogram.
row,Binder,Half-life (dissociation of half of the antibody-antigen complex)
1,B1,9.53 h
2,B2,5.94 h
3,B4,1.01 h

# Target: T5, human IP-10 (interferon gamma inducible …)
# Assay: SPR (Biacore), extension of dissociation curve, 37 C
# Description: as §3, §4
row,Binder,Half-life (dissociation of half of the antibody-antigen complex)
1,B1,5.05 h
2,B2,4.34 h
3,B4,0.71 h

# Target: T1, rhesus monkey IP-10
# Assay: SPR (Biacore), antigen on CM5 chip, antibody 133 nM, 25 C
# Description: as §1
row,Binder,Kd
1,B1,0.71 nM
2,B2,1.21 nM
3,B3,4.4 nM
4,B4,0.81 nM

# Target: T3, human MIG (monokine induced by gamma …)
# Assay: as above
# Description: as §1
row,Binder,Kd
1,B1,161 nM
2,B2,722 nM

# Target: T4, mouse IP-10
# Assay: as above
# Description: as §1
row,Binder,Kd
1,B3,464 nM

# Target: T5, human IP-10 (interferon gamma inducible …)
# Assay: inhibition of 0.100 nM 125I-IP-10 binding to CXCR3-expressing 300.19 cells
# Description: The cells were grown in RPMI media containing 10% FCS and G418 selection. Prior to use, the cells were washed twice with Hank's Balanced Salt Solution (HBSS) at 4° C. and adjusted to 4×10⁷ cells/ml. Glass fiber plates (Millipore MultiScreen®, Cat. #MAFBNOB50) were blocked with 200 μl of a 0.1% polyethyleneimine solution one day prior to the experiment. On the day of the study, the blocking buffer was aspirated by using a Millipore manifold. The plates were washed three times with 200 μl of binding buffer (50 mM HEPES, pH 7.2, 1 mM CaCl₂, 5 mM MgCl₂, 0.5% BSA). […] The plates were incubated on a plate shaker for 60 minutes at room temperature and washed three times with wash buffer (10 mM HEPES, pH 7.2, 0.5 M NaCl, 0.5% BSA) at a volume of 200 μl per wash. The plates were dried, 25 μl of scintillant was added and the plates were counted on a Wallac Microbeta Counter. Data were analyzed using Prism software and a KD was calculated.
# Competition assays were run in a similar manner to the experiment described above. […] Lastly, 25 μl of cells at a density of 1×10⁶ cells per well were added and the plates were incubated on a plate shaker for 60 minutes at room temperature, washed and counted as described above. EC₅₀ values were calculated using Prism software. Kᵢ values (in nM) were determined using the formula: […]
row,Binder,Ki
1,B1,0.09 nM
2,B2,0.06 nM
3,B3,0.41 nM
4,B4,0.16 nM
5,B5,0.29 nM
